Measurements from CN113480644A.

Target: SARS-CoV-2 S蛋白 (on virus particles) (SARS-CoV-2) (UniProt P0DTC2)
Test: cell-based or functional assay

REGN10987 (antibody) was tested, and the 中和效率(IC 50), 假病毒中和 (MLV pseudovirus, ACE2-HEK293) was 0.162 µg/mL.
